# Reference: publication PMC4381051
# Like-named read-outs stand apart in the source and are kept apart here.
# T1: Mst77F WT (UniProt P16909 1-215)
# T1 sequence: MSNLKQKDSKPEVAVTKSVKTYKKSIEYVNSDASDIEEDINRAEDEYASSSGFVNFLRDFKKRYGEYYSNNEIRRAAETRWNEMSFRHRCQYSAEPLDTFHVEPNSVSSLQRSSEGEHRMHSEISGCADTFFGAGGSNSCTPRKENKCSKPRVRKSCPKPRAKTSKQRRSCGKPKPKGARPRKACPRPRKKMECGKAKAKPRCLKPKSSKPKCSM
# T2: Mst77F Δ110C;Mst77F Δ100N (Drosophila melanogaster?;Drosophila …, UniProt P16909;P16909 1-105;101-215, |)
# T2 sequence 1: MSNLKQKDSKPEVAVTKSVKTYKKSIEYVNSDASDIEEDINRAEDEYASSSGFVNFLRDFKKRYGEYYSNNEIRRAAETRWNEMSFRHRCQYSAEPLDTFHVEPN
# T2 sequence 2: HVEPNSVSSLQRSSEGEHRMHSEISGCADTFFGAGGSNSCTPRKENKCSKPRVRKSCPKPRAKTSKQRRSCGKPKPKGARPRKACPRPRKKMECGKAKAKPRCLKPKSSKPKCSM
# T3: Mst77F Δ110C (UniProt P16909 1-105)
# T3 sequence: T2 sequence 1
# T4: Mst77F CTD* (UniProt P16909, CTD sequence randomized)
# T4 sequence: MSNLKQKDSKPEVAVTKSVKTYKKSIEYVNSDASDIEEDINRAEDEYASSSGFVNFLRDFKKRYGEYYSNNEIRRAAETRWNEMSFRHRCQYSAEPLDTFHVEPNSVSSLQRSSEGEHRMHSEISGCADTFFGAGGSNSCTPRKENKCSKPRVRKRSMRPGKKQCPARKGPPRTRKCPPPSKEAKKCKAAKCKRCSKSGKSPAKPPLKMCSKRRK
# B1: poly-AT 12 bp DNA (dsDNA)
# DNA 1: ATATATATATAT
# DNA 2: ATATATATATAT
# B2: random 12 bp DNA, biotinylated (dsDNA)
# DNA 1: GTACCACGGTAG
# DNA 2: CTACCGTGGTAC
# B3: poly-GC 12 bp DNA (dsDNA)
# DNA 1: GCGCGCGCGCGC
# DNA 2: GCGCGCGCGCGC
# B4: random 12 bp DNA (dsDNA)
# DNA 1: GTACCACGGTAG
# DNA 2: CTACCGTGGTAC
# Assays:
# Mst77F WT [1] = biological target: T1, Mst77F WT; experiment: FP
# [2] = biological target: T2, Mst77F Δ110C;Mst77F Δ100N; experiment: pull-down
# Mst77F Δ110C [3] = biological target: T3, Mst77F Δ110C; experiment: pull-down
# Mst77F WT [4] = biological target: T1, Mst77F WT; experiment: FP; remark: listed apart in the source
# Mst77F CTD* = biological target: T4, Mst77F CTD*; experiment: FP
# Mst77F Δ110C [5] = biological target: T3, Mst77F Δ110C; experiment: FP
binder,measurement,setting,value
B1,Kd,Mst77F WT [1],70 ± 30 nM
B2,binding result,[2],binds
same,binding result,Mst77F Δ110C [3],no binding
B3,Kd,Mst77F WT [1],170 ± 60 nM
B4,Kd,Mst77F WT [4],110 ± 50 nM
same,Kd,Mst77F CTD*,60 ± 10 nM
same,binding result,Mst77F Δ110C [5],no binding
